Target: IGF-1R of the transfected cells of Example 10 (confocal microscopy) (Homo sapiens (Human)) (UniProt P08069)
Test: confocal microscopy, colocalization in cells transfected in the presence of the small molecule NSC 250435

GFP-fused FAK-NT2 (a.a. 127-243)
percentage of interaction: 30%
